Among the data in US20180291083A1 (IMMATICS BIOTECHNOLOGIES, published 2018) are peptide exchange yield values, retold here.

Some results are limits rather than exact numbers.

In the first assay the target is T1, HLA-A*24:02 (human).
T1 construct: Peptide-receptive MHC class I monomer made by UV cleavage of a UV-sensitive ligand
Kind of assay: UV ligand exchange ELISA; exchange yield grade. In outline:
(§1)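 Peptide–MHC complexes formed by UV-ligand exchange, in which a UV-cleavable peptide is replaced by the test peptide. Exchange yield measured by ELISA detecting β2m of stabilised complexes captured on streptavidin, against refolded HLA-A*02:01/MLA-001 monomer standards (15-500 ng/ml); samples diluted 100-fold.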
KYLADLPTL gave a peptide exchange yield of more than 75%.

In turn, IFKEHNFSF yielded a peptide exchange yield of more than 75%.

The target of a further assay is T2, HLA-A*03:01 (human).
T2 construct: Peptide-receptive MHC class I monomer made by UV cleavage of a UV-sensitive ligand
Nature of the assay: UV ligand exchange ELISA; exchange yield grade. An outline of the steps:
as §1
Consider SISNLVFTY, for which the peptide exchange yield is 20 to 50%.

As for LLNRHILAH, the peptide exchange yield fell in the range of 50 to 75%.

Another assay concerns the target T3, HLA-A*01:01 (human).
T3 construct: Peptide-receptive MHC class I monomer made by UV cleavage of a UV-sensitive ligand
Kind of assay: UV ligand exchange ELISA; exchange yield grade. In outline: as §1
Regarding ATDIVDSQY, the peptide exchange yield was in the range of 50 to 75%.

Take LTEGHSGNYY: the peptide exchange yield is 50 to 75%.

Molecule FTDIDGQVY yielded a peptide exchange yield of 50 to 75%.

Molecule SVADIRNAY gave a peptide exchange yield of 20 to 50%.

As for GTDVLSTRY, the peptide exchange yield lay in the range of 50 to 75%.

As to LTDSEKGNSY, the peptide exchange yield was 50 to 75%.

TFDLTVVSY: the peptide exchange yield is 20 to 50%.

On to RSDPGGGGLAY, for which the peptide exchange yield was 50 to 75%.

YSDKEFAGSY displayed a peptide exchange yield of more than 75%.

In turn, ITDIHIKY showed a peptide exchange yield of more than 75%.

For VTEEPQRLFY, the peptide exchange yield is more than 75%.

Take FMDSESFYY: the peptide exchange yield fell in the range of 10 to 20%.

Molecule WIGDKSFEY returned a peptide exchange yield of 20 to 50%.

For the molecule ISEAGKDLLY, the peptide exchange yield lay within 50 to 75%.

As for YTDKKSIIY, the peptide exchange yield was 50 to 75%.

In turn, ALDQNKMHY gave a peptide exchange yield of 50 to 75%.

Molecule AAADHHSLY came in with a peptide exchange yield of 50 to 75%.

YSHPQYSSY came in with a peptide exchange yield of 20 to 50%.

In turn, STDSAGSSY returned a peptide exchange yield of more than 75%.

YINPAKLTPY showed a peptide exchange yield of 20 to 50%.

YVDAGTPMY had a peptide exchange yield of 50 to 75%.

Regarding YSDIGHLL, the peptide exchange yield is 20 to 50%.

HVDQDLTTY returned a peptide exchange yield of 20 to 50%.

With VTEGVAQTSFY, the peptide exchange yield was more than 75%.

Another assay deals with T4, HLA-A*02:01 (human).
T4 construct: Peptide-receptive MHC class I monomer made by UV cleavage of a UV-sensitive ligand
Kind of assay: UV ligand exchange ELISA; exchange yield grade. An outline of the steps: as §1
In turn, VMLQINPKL gave a peptide exchange yield of 50 to 75%.

Consider AMPDSPAEV, for which the peptide exchange yield was more than 75%.

Regarding YLLPSVVLL, the peptide exchange yield was more than 75%.

As for FLLPKVQSIQL, the peptide exchange yield lay within 50 to 75%.

On to KLGPVAVSI, for which the peptide exchange yield was more than 75%.

The molecule KLLGYDVHV gave a peptide exchange yield of 50 to 75%.

Molecule SLADVHIEV came in with a peptide exchange yield of more than 75%.

For FLLPKVQSI, the peptide exchange yield was more than 75%.

RLIAKEMNI displayed a peptide exchange yield of more than 75%.

Take FAFSGVLRA: the peptide exchange yield was 20 to 50%.

Turning to SLYVQQLKI, the peptide exchange yield is more than 75%.

The molecule KAYNRVIFV yielded a peptide exchange yield of 50 to 75%.

Take KLSDNILKL: the peptide exchange yield is more than 75%.

YLNEKSLQL: the peptide exchange yield is more than 75%.

Regarding FSLEDLVRI, the peptide exchange yield fell in the range of 20 to 50%.

In the case of FLFDKLLLI, the peptide exchange yield is more than 75%.

ILAAVETRL: the peptide exchange yield was 50 to 75%.

The molecule ILHAQTLKI showed a peptide exchange yield of 50 to 75%.

With SLFEGIYTI, the peptide exchange yield was more than 75%.

SLMDLQERL came in with a peptide exchange yield of 50 to 75%.

FLINTNSEL: the peptide exchange yield was more than 75%.
